Results reported in article PMC4380498, “Molecular Insights into Frataxin-Mediated Iron Supply for Heme Biosynthesis in Bacillus subtilis” (PLoS ONE, 2015).

B1: Bacillus subtilis frataxin homologue Fra, recombinant His6-tagged (natural protein, Bacillus subtilis 168)
chain: MDVFSEYLAGIADPFHRERTEEVLTWIKNKYPNLHTEIKWNQPMFTDHGTFIIGFSVSKKHLAVAPEKVTIAHVEDDIVKAGYDYTEQLIRIPWNGPVDYTLLEKMIEFNILDKADCSTFWRK
notes: frataxin homologue Fra of Bacillus subtilis 168, gene amplified from genomic DNA; Used iron-loaded (holo-Fra, anaerobic incubation with FeCl2) or iron-free (apo-Fra); For MST it was labelled with the cysteine-reactive Monolith NT.115 Protein Labeling Kit RED; The methods say N-terminal His6-tag fusions, while legends print Fra-His6; also called Fra-His6; holo-Fra; not shown: His6, N-terminal, kept
B2: Bacillus subtilis nitric oxide synthase bsNos, recombinant His6-tagged (enzyme, Bacillus subtilis 168, UniProt O34453 1-363, looked up)
chain: MEEKEILWNEAKAFIAACYQELGKEEEVKDRLADIKSEIDLTGSYVHTKEELEHGAKMAWRNSNRCIGRLFWNSLNVIDRRDVRTKEEVRDALFHHIETATNNGKIRPTITIFPPEEKGEKQVEIWNHQLIRYAGYESDGERIGDPASCSLTAACEELGWRGERTDFDLLPLIFRMKGDEQPVWYELPRSLVIEVPITHPDIEAFSDLELKWYGVPIISDMKLEVGGIHYNAAPFNGWYMGTEIGARNLADEKRYDKLKKVASVIGIAADYNTDLWKDQALVELNKAVLHSYKKQGVSIVDHHTAASQFKRFEEQEEEAGRKLTGDWTWLIPPISPAATHIFHRSYDNSIVKPNYFYQDKPYE
notes: nitric oxide synthase bsNos of Bacillus subtilis 168, gene amplified from genomic DNA; The holo-form (with heme b) is called dimeric and the apo-form monomeric; The two were separated by size-exclusion chromatography; also called Nos-His6; holo-bsNos; not shown: His6, N-terminal, kept

Experiments:
[1] = target: T1, Bacillus subtilis ferrochelatase HemH, recombinant Strep-tag II variant (Bacillus subtilis 168, UniProt P32396 1-310); assay: cell-based or functional assay
T1 sequence: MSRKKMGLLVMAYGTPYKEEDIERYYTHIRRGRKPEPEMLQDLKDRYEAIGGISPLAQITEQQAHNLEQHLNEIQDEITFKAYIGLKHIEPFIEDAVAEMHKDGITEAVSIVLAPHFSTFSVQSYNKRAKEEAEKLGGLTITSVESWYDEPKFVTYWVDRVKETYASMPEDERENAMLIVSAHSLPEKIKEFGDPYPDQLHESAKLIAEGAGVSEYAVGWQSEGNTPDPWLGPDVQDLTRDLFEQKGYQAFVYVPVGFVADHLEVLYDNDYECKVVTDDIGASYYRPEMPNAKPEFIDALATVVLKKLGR

[2] = target: T1, Bacillus subtilis ferrochelatase HemH, …; assay: MST; 50 nM fluorescently labelled holo-Fra (iron-charged); HemH titrated from 42.6 μM to 0.01 μM in TRIS-based NT binding analysis buffer; 25°C; Monolith NT.115; settings: both partners purified
[3] = target: the molecule itself; assay: SEC; separation of the apo- and holo-forms of bsNos by size-exclusion chromatography after affinity purification from the crude protein extract

Binder	kcat(obs) of the frataxin-dependent conversion of protoporphyrin IX into heme b by HemH (holo-Fra varied between 0.1 and 10 μM, Michaelis-Menten fit) [1]	Kd [2]	stoichiometry N [3]
B1	0.925 s⁻¹	1630 ± 20 nM	–
B2	–	–	2
